Data taken from patent US20260232827A1 (Zymeworks, published 2026).

T1: human sodium-dependent phosphate transporter 2B (NaPi2b) (human, UniProt O95436 1-690)
T1 construct: UniProt ID is given as 095436 [sic]; also called hNaPi2b; Hu NaPi2b
T1 sequence: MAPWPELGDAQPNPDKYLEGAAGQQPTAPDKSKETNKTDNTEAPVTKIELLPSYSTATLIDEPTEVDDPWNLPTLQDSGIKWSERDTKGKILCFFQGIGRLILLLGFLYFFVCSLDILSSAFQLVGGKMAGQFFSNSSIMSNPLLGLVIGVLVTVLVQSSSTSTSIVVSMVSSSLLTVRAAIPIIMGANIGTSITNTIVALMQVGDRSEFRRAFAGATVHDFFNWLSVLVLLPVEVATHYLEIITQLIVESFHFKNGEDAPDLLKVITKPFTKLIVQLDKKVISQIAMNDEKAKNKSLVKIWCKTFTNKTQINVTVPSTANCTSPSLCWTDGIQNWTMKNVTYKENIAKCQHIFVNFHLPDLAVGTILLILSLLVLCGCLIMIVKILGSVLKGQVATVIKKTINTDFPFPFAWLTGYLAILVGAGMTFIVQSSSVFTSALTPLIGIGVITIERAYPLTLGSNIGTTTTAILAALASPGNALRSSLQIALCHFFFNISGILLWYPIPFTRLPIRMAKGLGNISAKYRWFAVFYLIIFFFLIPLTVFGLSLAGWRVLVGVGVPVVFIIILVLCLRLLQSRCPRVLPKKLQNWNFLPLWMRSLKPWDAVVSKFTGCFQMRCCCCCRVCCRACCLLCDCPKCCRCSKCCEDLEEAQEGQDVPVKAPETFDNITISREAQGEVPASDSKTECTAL

T2: Construct 6 (NaPi2b del 317-333) (human, UniProt O95436 1-690)
T2 construct: Deletion construct on HEK293-6e cells; also called CL_#29919
T2 sequence: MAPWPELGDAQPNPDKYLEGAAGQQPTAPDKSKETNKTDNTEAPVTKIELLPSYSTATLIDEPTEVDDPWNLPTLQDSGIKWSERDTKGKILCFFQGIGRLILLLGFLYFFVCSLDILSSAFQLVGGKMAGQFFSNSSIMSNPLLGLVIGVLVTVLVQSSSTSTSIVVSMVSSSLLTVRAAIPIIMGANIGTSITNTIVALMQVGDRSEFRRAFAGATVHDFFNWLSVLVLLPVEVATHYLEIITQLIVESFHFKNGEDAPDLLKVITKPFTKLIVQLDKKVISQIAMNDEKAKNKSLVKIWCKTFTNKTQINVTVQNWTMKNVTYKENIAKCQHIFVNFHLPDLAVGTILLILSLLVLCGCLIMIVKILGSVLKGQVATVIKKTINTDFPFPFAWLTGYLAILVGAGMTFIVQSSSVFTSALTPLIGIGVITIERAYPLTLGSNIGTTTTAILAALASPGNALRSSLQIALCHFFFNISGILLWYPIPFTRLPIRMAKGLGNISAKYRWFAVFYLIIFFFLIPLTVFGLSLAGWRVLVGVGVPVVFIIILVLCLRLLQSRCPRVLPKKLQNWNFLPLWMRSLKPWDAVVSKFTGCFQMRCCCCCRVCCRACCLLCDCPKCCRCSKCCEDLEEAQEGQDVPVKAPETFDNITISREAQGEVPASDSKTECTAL

T3: mouse NaPi2b (mouse, UniProt Q9DBP0 1-697)
T3 construct: also called Ms NaPi2b; CL #13476
T3 sequence: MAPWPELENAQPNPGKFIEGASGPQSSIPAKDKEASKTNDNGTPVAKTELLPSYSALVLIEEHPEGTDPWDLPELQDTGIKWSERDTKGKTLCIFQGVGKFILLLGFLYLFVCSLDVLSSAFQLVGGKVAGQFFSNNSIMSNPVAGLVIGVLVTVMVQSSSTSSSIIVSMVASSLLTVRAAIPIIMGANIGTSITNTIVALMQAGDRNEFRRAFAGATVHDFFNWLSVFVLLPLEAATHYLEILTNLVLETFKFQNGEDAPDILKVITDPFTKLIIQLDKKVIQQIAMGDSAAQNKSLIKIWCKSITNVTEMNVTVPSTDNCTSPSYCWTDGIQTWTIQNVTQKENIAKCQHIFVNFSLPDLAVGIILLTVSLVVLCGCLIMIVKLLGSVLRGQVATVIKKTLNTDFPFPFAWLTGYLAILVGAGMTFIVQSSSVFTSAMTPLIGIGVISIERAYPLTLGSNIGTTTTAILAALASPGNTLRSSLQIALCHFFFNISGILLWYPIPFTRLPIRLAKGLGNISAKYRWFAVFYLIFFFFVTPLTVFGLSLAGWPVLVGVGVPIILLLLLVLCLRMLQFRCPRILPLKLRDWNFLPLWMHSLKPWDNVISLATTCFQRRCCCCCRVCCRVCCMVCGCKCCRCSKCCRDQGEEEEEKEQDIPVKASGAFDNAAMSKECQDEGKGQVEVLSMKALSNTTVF


What was measured:
[1] = biological target: T1, human sodium-dependent phosphate …; assay: flow cytometry on IGROV-1 cells (endogenous NaPi2b), 24 h at 4 C, anti-human IgG Fc AF647, APC-A GeoMean
Procedure: Cells were maintained under standard culture conditions (37° C./5% CO₂) until assay set-up. […] Cells were removed from culture vessels using Cell Dissociation Buffer (Invitrogen, Waltham, MA), seeded at 50,000 cells/well in conical-bottom 96-well plates, and treated with test antibody or antibody-drug conjugate for 24 hours at 4° C. to prevent internalization. […] Following incubation and washing, fluorescence was detected by flow cytometry on a BD LSRFortessa™ Cell Analyzer (BD Biosciences, Franklin Lake, NJ) with 1,000 minimum events collected per well.

[2] = biological target: T2, Construct 6 (NaPi2b del 317-333); assay: flow cytometry, HEK293-6e cells transfected with Construct 6
Procedure: Following transfection, cells were seeded at 50,000 cells/well in conical-bottom 96-well plates and treated with a serial dilution of test antibody for 24 hours at 4° C. to prevent internalization. Cells were treated with final concentrations of all humanized antibodies of 200, 20, or 2 nM. Cells were treated with final concentrations of the reference anti-NaPi2a rabbit antibody of 50, 5, or 0.5 nM. […] Following incubation and washing, fluorescence was detected by flow cytometry on a BD LSRFortessa™ Cell Analyzer (BD Biosciences, Franklin Lake, NJ) with 1,000 minimum events collected per well. […] Background-subtracted AF647 Mean Fluorescence Intensity (MFI) values were calculated by subtracting the average MFI of three technical replicates of unstained (no primary antibody) cells.

mouse NaPi2b = biological target: T3, mouse NaPi2b; assay: flow cytometry, HEK293-6e cells transfected with mouse NaPi2b; apparent Kd above the highest concentration tested

EC50 (read off the curve) [1]	binding result [2]	Kd (mouse NaPi2b)	Binder
~2 nM			v38591 (humanized anti-NaPi2b antibody, wild-type Fc) (antibody, human IgG1, kappa, also called v38591 Wild-type; H1L2) heavy: not shown light: DVQMTQSPSSLSASVGDRVTITCRASQDVYSYLNWYQQKPGKAVKLLIYYTSRLQSGVPSRFSGSGSGTDYTLTISSLQPEDFATYYCQQYNIFPWTFGQGTKLEIKRTVAAPSVFIFPPSDEQLKSGTASVVCLLNNFYPREAKVQWKVDNALQSGNSQESVTEQDSKDSTYSLSSTLTLSKADYEKHKVYACEVTHQGLSSPVTKSFNRGEC
	no binding (tested: 200 nM)	> 200 nM	v18992 (MX35), reference anti-NaPi2b antibody (antibody, human IgG1, kappa) heavy 1: GQVQLVQSGAEVVKPGASVKMSCKASGYTFTGYNIHWVKQAPGQGLEWIGAIYPGNGDTSYKQKFRGRATLTADTSTSTVYMELSSLRSEDSAVYYCARGETARATFAYWGQGTLVTVSSASTKGPSVFPLAPSSKSTSGGTAALGCLVKDYFPEPVTVSWNSGALTSGVHTFPAVLQSSGLYSLSSVVTVPSSSLGTQTYICNVNHKPSNTKVDKKVEPKSCDKTHTCPPCPAPELLGGPSVFLFPPKPKDTLMISRTPEVTCVVVDVSHEDPEVKFNWYVDGVEVHNAKTKPREEQYNSTYRVVSVLTVLHQDWLNGKEYKCKVSNKALPAPIEKTISKAKGQPREPQVYVYPPSRDELTKNQVSLTCLVKGFYPSDIAVEWESNGQPENNYKTTPPVLDSDGSFALVSKLTVDKSRWQQGNVFSCSVMHEALHNHYTQKSLSLSPG heavy 2: not shown light: GDIQMTQSPSSLSASVGDRVTITCSASQDIGNFLNWYQQKPGKTVKVLIYYTSSLYSGVPSRFSGSGSGTDYTLTISSLQPEDFATYYCQQYSKLPLTFGQGTKLELKRTVAAPSVFIFPPSDEQLKSGTASVVCLLNNFYPREAKVQWKVDNALQSGNSQESVTEQDSKDSTYSLSSTLTLSKADYEKHKVYACEVTHQGLSSPVTKSFNRGEC
